Reference: article PMC3849134
Read-outs that look alike come from different tables or passages of the source.

Key:
Assay in all cases: radioligand binding
[1] = molecular target: self-assembling peptide AcN-(KLDL)3-CNH2
[2] = molecular target: self-assembling peptide AcN-(KLDL)3-CNH2; remark: listed apart in the source
[3] = molecular target: self-assembling peptide AcN-(KLDL)3-CNH2; remark: listed apart in the source

Substance: ^125I-TGF-β1 (radiolabelled transforming growth factor β1) (ligand)
- uptake ratio (concentration in gel / concentration in bath) [1]: 85.8
- percent of loaded released (cumulative), day 21 [2]: 44%
- percent of loaded retained in the hydrogel, day 21 [2]: 56%
- percent of loaded released (cumulative), day 3 [3]: 13 to 16%
- percent of loaded released (cumulative), day 7 [3]: 25%
- percent of loaded released (cumulative), day 14 [3]: 27%
- percent of loaded released (cumulative), day 21 [3]: 32%
- percent of loaded retained in the hydrogel, day 21 [3]: 68%
- uptake ratio (concentration in gel / concentration in bath) [3]: 18.5
